From a protein production outcome set (Wang et al. 2014)

Assay: label from the status in PepcDB records

Protein production, not failed:
MMEMITIKPGKITVQANPNMPKEVAELFRKQHYEIVGRHSGVKLCHWLKKSLTEGRFCYKQKFYGIHSHRCLQMTPVLAWCTHNCIFCWRPMENFLGTELPQPWDDPAFIVEESIKAQRKLLIGYKGNPKVDKKKFEEAWNPTHAAISLSGEPMLYPYMGDLVEEFHKRGFTTFIVTNGTIPERLEEMIKEDKLPTQLYVSITAPDIETYNSVNIPMIPDGWERILRFLELMRDLPTRTVVRLTLVKGENMHSPEKYAKLILKARPMFVEAKAYMFVGYSRNRLTINNMPSHQDIREFAEALVKHLPGYHIEDEYEPSRVVLIMRDDVDPQGTGVEGRFIKH
MMGLKAHAMVLEKFNQPLVYKEFEISDIPRGSILVEILSAGVCGSDVHMFRGEDPRVPLPIILGHEGAGRVVEVNGEKRDLNGELLKPGDLIVWNRGITCGECYWCKVSKEPYLCPNRKVYGINRGCSEYPHLRGCYSSHIVLDPETDVLKVSEKDDLDVLAMAMCSGATAYHAFDEYPESFAGKTVVIQGAGPLGLFGVVIARSLGAENVIVIAGSPNRLKLAEEIGADLTLNRRETSVEERRKAIMDITHGRGADFILEATGDSRALLEGSELLRRGGFYSVAGVAVPQDPVPFKVYEWLVLKNATFKGIWVSDTSHFVKTVSITSRNYQLLSKLITHRLPLKEANKALELMESREALKVILYPEG
MMIDPELRPAFLPAGKLRAAINLGNPILAGTDAAGQAVGVSVDLAREFARRLNAGIELRVFDTAGQSVDAVTREEADIGFFAIDPARGAGIAFTGPYVLIEGAYLVRDDSPLQANEDVDRAGKRVTVGKGSAYDLHLTRALQHLEHHHHHH
MMKEKLESKKDEIRCCYKITDTDVAVLLKMVEIEKPITSEELADIFKLSKTTVENSLKKLIELGLVVRTKTEGKKIGRPKYYYSISSNILEKIRNDLLNCAKRMELAAT
MMLGPEGGEGYVVKLRGLPWSCSIEDVQNFLSDCTIHDGVAGVHFIYTREGRQSGEAFVELESEDDVKLALKKDRESMGHRYIEVFKSHRTEMDWVLKHSGPNSA

Protein production, failed:
MMALTMDFSTQLLEHQVTAILLLDDQRQIHYANPAAEQLFSQSAQRMAQHAFDDLFHSPQFDLSTLMLPLNTGQSVTDSDVRIMIDEQPLYIELTSSPVAINKSLYLLVEIRQIE
MMCRSITLFLFALISIVVGKQLSAQSISELRLLIDSGRYDRALPIAQQLVAKNPKHADNNYMLGLLLYKAERYEEAIAPLRVAVSRRSDAYEMLADAYAKEYFFSEALAALEKQKVTLVKKKQETVSIDAGIDRMRRAVRLLDRAEWVEVIDSVRTNKADLLSAYNLIADNGRLEWVKGNQGEATSFVNGRGDHAIMTEKGEDGVYSLHEAHRIGGKWGNAIPLEKLNSRFNENYPSLRADGFTLLFASDRPDGIGGYDLYMTRRDLEDGIFLEPTLLGMPFNSPYNDYLLVYDELRGIGFFASDRFCPADVVTVYTFVINEEGRPVATDDMALKRAYASLKSIRATQDPERDYSRLIASARDNRTDAEKKASERQIYFPMQGMRIYTRWSDFQSSEAKSLYQDVMARKRKLEQAATRLEELRLLYGRASALERSGMKQEILRLENAIPPLEEEVGRMEKEVRNMELQAVQGF
MMDNDNSLNKRPTFKRALRNISMTSIFITMMLIWLLLSVTSVLTLKQYAQKNLALTAATMTYSLEAAVVFADGPAATETLAALGQQGQFSTAEVRDKQQNILASWHYTRKDPGDTFSNFISHWLFPAPIIQPIRHNGETIGEVRLTARDSSISHFIWFSLAVLTGCILLASGIAITLTRHLHNGLVEALKNITDVVHDVRSNRNFSRRVSEERIAEFHRFALDFNSLLDEMEEWQLRLQAKNAQLLRTALHDPLTGLANRAAFRSGINTLMNNSDARKTSALLFLDGDNFKYINDTWGHATGDRVLIEIAKRLAEFGGLRHKAYRLGGDEFAMVLYDVQSESEVQQICSALTQIFNLPFDLHNGHQTTMTLSIGYAMTIEHASAEKLQELADHNMYQAKHQRAEKLVR
MMENQVNEQTVTSPENGSSATGYNSGIWDGLSVVALIGGAIASVVLPANPAAGVIPVAAGVGLHLFNRKQLEEHLLANQRATAAQIVQLVNQNQAHLQEYLQKFQGDIQTSLGQQQQAIAANQENLTKALAEKSLALQGKLEAFQAAAAQTHAGLDIKHQDLLAVVTELRTMEGCTQSLAAYPHAEAYYQRGLSHYRLEDWAEAVRDCTEAIRLRGDLAGAFHHRGMAYARLDNRKQATDDLRQAYKLYFDQGDLDSYEVARALHKQYYEGPVEDLELEPTPVMPPAEGVGHEAYIADPDREIKPLLAEESDTTAANLFG
MMEQKIMEVLRRMQAILDEACLRDLKTVLQVVFEGCEISQEKRELRVPDRSWAIDLEEYLMSKALEGKSPGTVDRYRYELQRLLSYVNKAVRDITEGDISGYMRAYKAIRQVSNQTLKNVRAVYSSFFAWLRDRDRIRRNPMALVEAIKVEQKIRKPYTDEEREMLLRNCSTLRDKAMMEFFYSTAVRVSELVTLNRDDIRFTSKDLIVFGKGSKERRVYLNDRTNLYMKEYLDSRTDGSPALIVSIRRPHSRLSKTGIEDIIRRTGQRAGVEKAHPHRFRRTSLTNALNRGMPLQEAMVMAGHAKPETTMGYCTVDQEGVKYHHQKYLSA
MMESGAGFVAMEERISPGSFFQYPLSGFRASPNRSPCPPSDRERYLTELLQERQKLGPFLQVMPNCCRLLNHEIRRVSSFPDLDRYEHGSPFRSLGQPTNGKLDLEGWSMMQAEVSHC
MMFDEFKRTILREDIKYEIFRKFFHIFSLIVLVFYRINFWIGLFSNILFMILYLSSEIFRITEKKILFFKNISNIILKSRKILPNRVSFSPVFLFLGILISYCLSMHPFNYIGIFSVCLGDGFASLIGKLIPSFKLVNGKTISGSLVVFCVTFFSYYYFFPYLTVALILGILAVLVELFDAANYDNLFLPLVVSASSYFLTSFFYSQ
MMFLSKTLTSLGQWPHSLPRISLMDRYVARQLIPPFLFSVGVVASLGLAIGNLSDLGNKIVEKNLPVAKAAEVLLLKVPEFLAYSLPVAVMLATMMTFGRLSGDCEIIAIRSCGVSLYRLILPAVVLSLLVTGWAFVLTEWVVPVANYRATSILIESIDEEHPFWQNRDVFYPEFEEIKLDNGQTARRLKSLVYAEKFDGKEMQNLTVLQWTENHLKHIVLSDNATWNNDNKRWDFFHGTVYRLTETEDYQEAVPFTNKQIALPQSAFDFARQGRDPYEMTIAEAQDYIKILKLIGDEKKTQFFQVRTEQKLAFPFVCIVFAVVGSAIGARPQRISRATGFGLTIVIIFAYYILGFFSGSLGIVGLISPTLAAWLPNFVGLGVGIWLLYEFNQG
MMHPVASSNPAFCGPGKPSCLNEDAMRAADQFDIYSSQQSKYSHTVNHKPMVCQRQDPLNETHLQTTSGRSIEIKDELKKKKNLNRSGKRGRPSGTTKSAGYRTSTGRPLGTTKAAGFKTSPGRPLGTTKAAGYKVSPGRPPGSIKALSRLADLGYGCGTAAFPYPMMHGRAVHGVEETSSEVKPPNE
MMIIIRVAIMISVVFYLYFIINLLLINHYREPIQSYEKGPTPYELFLVIPVLNEEHVISRTITQLTESLEQLPPTVHAQIIAVDDDSTDHSLLLLTQSSSRFLQILHRTGNQRAGKGAVLNTAVQYIHKTLALKSDPQRTIVGVLDADAFMNTADLTRVLAHFEQEPQLAMIQTSVNIYNQPNWLTKMQNFEFMGVNNATQQLRNRLGQGIASGNGQFVRLDLALQNPWGNSLLEDLEFTLRTWLLGGTRTAFDHTLVVQQEAVEQLRPFFRQRVRWCQGAVQCMRYLPALWRSGRLNHFQKLDTTFWILMPISGCIVPLTSLITLVVLVSRSLQHWQVGWHHLAIGTLLVIAFSACLVLAALYQRNCAVVKQPVGFLDALKQSLTFQAFLLIISLTPYVAIYRQLRGQTGWAKTHHGVTTRVAKYPDTGLKRSY
MMIMLSKRPVAMRIALRPLALAASLILSTPFALNATTFGTDLLEGQVLDGIGTGAGNLGTVADIQNTLSNMLRDEAAIGTLASVLPQALQRLPDDRQLRLLQAVVWAATRRDDDARAQMAQIGQEPPNVWRHVAEGLIARNAGDLARAAASLDEARALDPDNAYVHNTAGSIAFAAGDLEAAQEHFAQAVKSAPGWPRLLRQPCRHDDRTRQSARGPDHSGRKPPSPSRLLRHPPDGGRGASVARAVGCCRSRAAHLP
MMITRGGAKAAKSLLVAAGPRLFSTVRTVSSHEALSASHILKPGVTSAWIWTRAPTIGGMRFASTITLGEKTPMKEEDANQKKTENESTGGDAAGGNNKGDKGIASYWGVEPNKITKEDGSEWKWNCFRPWETYKADITIDLKKHHVPTTFLDRIAYWTVKSLRWPTDLFFQRRYGCRAMMLETVAAVPGMVGGMLLHCKSLRRFEQSGGWIKALLEEAENERMHLMTFMEVAKPKWYERALVITVQGVFFNAYFLGYLISPKFAHRMVGYLEEEAIHSYTEFLKELDKGNIENVPAPAIAIDYWRLPADATLRDVVMVVRADEAHHRDVNHFASDIHYQGRELKEAPAPIGYH
MMKEMTVQQMTEKVLNKESLFILDVRNESDFRDWKIEGENFAYLNVPYFELVHGVDSIVDRLPKDQDIVVVCAKGGSAAFVAEQLAEAGFDNVYTLAGGMQAWSEHLHQAKVYEDDQLKIYQFIRVGKGCLSYMVLSGDEALVVDPLRFIDVYEQVAQQEGVTITHIVDSHLHADHLSGGKALAERTGAAYYLMKSEGAVFDFEPLEQHETIDFENVHLEVLAVKTPGHTPGSVSFFVNGKWLFSGDTIFVGGLGRPDLGGKVAEWAEDLYHTVYEKVAAMADDVIVLPAHYANLDEEINAEGYVGDTLGRIRARNEMMQNKAKDEFIDLVIQGAKTETPPNFEDIVAINRGLKTVDIETQRELEIGPNRCALHHTHA
MMKIFIRILLLFYYVFILLACGDKKESISINYILMARVTNMQTDEIKIDTPSRTIFIKLITGGDLSNVHVNLTLAKGVEMVEPANTESVYDFTKPASVTLKYKEEIITYHFIIDTEYNIVDPATLGWVKSTEWGTLPDYLAIYKSPSTLKGKNAVAYIAVADMDKNASFSVLGNATGVKTLTQFYNAESVKPAIVMNGGYFASNGATVSLLYRNNVMLAPNLQSMSRSDGTSNVAFYPTRSAFGEIENGKFEVNWVYTVSSGQTYAYPAPSPNKSGVSPMQIPSVNYPEGASIWKAKNAIGGGPVLLKNGLYKNTWEAELFDTASGIGPTSNNPRSAIGITGDNRLIFFVCEGRNKTPNVPGFTLEEVAYILRDLGCLDAMNLDGGGSSCMLVNGQETIKPSDGAQRSVTTAVAIK
MMKKSATTSSACNGCPAHSGNKLRRMGTDAERYDFTIALAGNPNTGKSTVFNALTGLKQHTGNWPGKTVEKAEGAFSYAGSSYKIVDLPGTYSLLSTSEDEEIARDFILFGKPDVTLIVADATRLERNMNLILQILEITDRAVLCANLMDEAERNGVEIDLRGLSRRLGIPVVGASARSGEGISDLLSALSEVAQGIYRCTPHRLTSIGTEIDTRIDSLAESIRLFHPDTPNSRWLALRLTEGDRRVENILYADNEAPAEKLKKEVDEFRRNFGEDLHDQLSEALYSDAGKICQEVITQANKRGRTPLDIKIDRIVTSRKWGFPIMLLMLALVLWITIVGSNYPSQWLSDSLVGILHPLLKTRATGFLPDWLSGFLIDGVYLATAWVVSVMLPPMAIFFPLFTLLEDFGFLPRVAFNLDELFRRSGAHGKQALTMTMGFGCNAAAIINTRIIDSQRERLIAILTNNFSLCNGRWPTQILLATIFLTPAVPAYLRGVIGIGSVVAIALLGIAFMFFFSWVLSRTLLRGQVSTFNLELPPYRPPQFWQTIYKSIVDRTLVVLWRAVVFAAPAGALIWLTCNIQIGGVGIAEYLIDLLDGPGWLMGLNGVILLAYVLAIPANEIVIPTILMLTVLTTGIDGGTGAGVMFEADGTAETARLFEAGGWTMLTGINLMLFCLLHNPCSTTLFNIYKETGSRKWTLLAALIPLATGFVVTVAVAFVWRLVGG
